Here are results for 2 substances from article PMC9263355.

As usually defined, the Kd is the equilibrium constant for the complex coming apart.

Test [1] deals with recombinant human galectin-8N (human). Kind of test: fluorescence polarisation; fluorescence anisotropy in solution, by inhibition: fixed galectin (0.2-2.5 µM) with 0.02 µM of its fluorescent probe, in the presence of 0.07-[…] (rh)4-1BB Fc or (rh)IgG1 Fc; average Kd from the points with ≥ 15% inhibition. Background: Fluorescence polarisation rises when a labelled molecule tumbles more slowly, as on binding a larger partner.

Test [2] concerns the target recombinant human galectin-9C (human). The description is as above.
Test [3] deals with recombinant human galectin-9N (human). The description is as above.
Test [4] has as its target 4-1BB on CD3/CD28-activated human CD4 T cells (human (endogenous in CD4 T cells)) (UniProt Q07011).

recombinant human (rh)4-1BB Fc chimera protein, sequence (Q07011 24-186, change not shown): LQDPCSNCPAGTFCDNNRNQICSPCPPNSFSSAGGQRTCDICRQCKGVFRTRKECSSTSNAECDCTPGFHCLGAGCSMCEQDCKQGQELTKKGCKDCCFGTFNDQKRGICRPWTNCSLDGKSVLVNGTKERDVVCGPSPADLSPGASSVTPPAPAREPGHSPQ
Gal-3 in normal human plasma, sequence (P17931 whole entry): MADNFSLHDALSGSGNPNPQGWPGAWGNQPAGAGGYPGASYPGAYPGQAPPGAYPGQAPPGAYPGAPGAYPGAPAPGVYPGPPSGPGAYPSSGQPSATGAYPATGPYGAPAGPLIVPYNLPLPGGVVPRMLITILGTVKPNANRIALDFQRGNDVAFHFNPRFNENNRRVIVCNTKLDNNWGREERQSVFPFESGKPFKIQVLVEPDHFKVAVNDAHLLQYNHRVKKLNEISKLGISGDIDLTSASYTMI
4-1BB on CD3/CD28-activated human CD4 T cells (human (endogenous in CD4 T cells)), sequence (Q07011 24-255): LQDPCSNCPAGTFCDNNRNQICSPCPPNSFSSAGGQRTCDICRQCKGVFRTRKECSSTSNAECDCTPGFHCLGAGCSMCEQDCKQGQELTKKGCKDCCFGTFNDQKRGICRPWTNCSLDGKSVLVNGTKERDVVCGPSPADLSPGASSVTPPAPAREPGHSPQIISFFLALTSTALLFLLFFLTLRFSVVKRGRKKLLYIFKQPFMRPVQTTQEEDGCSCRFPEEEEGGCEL

“recombinant human (rh)4-1BB Fc chimera protein (from UniProt Q07011 24-186) (Fc fusion)”: the values for the Kd in test [1], in test [2] and in test [3] were 3590 nM, 2240 nM and 1390 nM, respectively.

On to “Gal-3 in normal human plasma (from UniProt P17931 1-250) (natural protein)”, for which the fold decrease in fraction of 4-1BB+CD4+ T cells that produced TNFα upon 4-1BBL stimulation, after pre-incubation of activated CD4 T-cells with plasma in test [4] worked out at 3.8 fold.
